From publication doi:10.1101/2025.08.31.673358

Biological target: Fragile X messenger ribonucleoprotein (FMRP) (human (endogenous in iPSC-derived NPCs)) (UniProt Q06787)
Assay: co-IP

- percent of input co-immunoprecipitated: 20%
Substance: histone H3 di-methylated at lysine 79 (H3K79me2) (from UniProt P68431 1-136) (natural protein)
